Starred links: 1 amine or outer side, 2 acyl side, 3 side chain; linkers in the order of their positions; H or OH if unused. Non-standard residues stand in square brackets, D forms with d. Groups on a side chain read outwards from the residue. No end group written: not given here. *: point of attachment. C18 diacid = O=C(O)CCCCCCCCCCCCCCCCC(=O)*; γGlu = O=C(O)[C@H](CCC(=O)[*:2])N[*:1]; Palmitoyl = CCCCCCCCCCCCCCCC(=O)*; AEEA = NCCOCCOCC(=O)O; Aib = CC(C)(N)C(=O)O

The target of this experiment is human corticotropin-releasing factor 2α (CRF2 α receptor) (human), Q13324. Description: cell-based or functional assay.
Sequence of human corticotropin-releasing factor 2α (CRF2 α receptor) (human), Q13324 (Q13324 20-411): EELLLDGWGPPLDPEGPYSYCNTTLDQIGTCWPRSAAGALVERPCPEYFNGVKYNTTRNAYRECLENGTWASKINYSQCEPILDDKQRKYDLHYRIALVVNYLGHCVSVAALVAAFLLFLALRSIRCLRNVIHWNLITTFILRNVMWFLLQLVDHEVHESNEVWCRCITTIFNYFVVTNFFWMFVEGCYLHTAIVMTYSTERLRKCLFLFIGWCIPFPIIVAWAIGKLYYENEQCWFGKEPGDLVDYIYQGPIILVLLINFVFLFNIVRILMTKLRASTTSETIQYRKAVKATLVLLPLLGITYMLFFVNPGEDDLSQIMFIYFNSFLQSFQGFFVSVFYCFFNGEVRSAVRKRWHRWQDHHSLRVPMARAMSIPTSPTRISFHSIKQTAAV

B1: SEQ ID NO: 97 (peptide)
peptide: IVLSLDVPIKLK([AEEA-AEEA-γGlu-C18 diacid])QKLLKQERQKKQREQAETNKQILAQV-NH2
modifications: N-terminus assumed
SMILES: CC[C@H](C)[C@H](N)C(=O)N[C@H](C(=O)N[C@@H](CC(C)C)C(=O)N[C@@H](CO)C(=O)N[C@@H](CC(C)C)C(=O)N[C@@H](CC(=O)O)C(=O)N[C@H](C(=O)N1CCC[C@H]1C(=O)N[C@H](C(=O)N[C@@H](CCCCN)C(=O)N[C@@H](CC(C)C)C(=O)N[C@@H](CCCCNC(=O)COCCOCCNC(=O)COCCOCCNC(=O)CC[C@H](NC(=O)CCCCCCCCCCCCCCCCC(=O)O)C(=O)O)C(=O)N[C@@H](CCC(N)=O)C(=O)N[C@@H](CCCCN)C(=O)N[C@@H](CC(C)C)C(=O)N[C@@H](CC(C)C)C(=O)N[C@@H](CCCCN)C(=O)N[C@@H](CCC(N)=O)C(=O)N[C@@H](CCC(=O)O)C(=O)N[C@@H](CCCNC(=N)N)C(=O)N[C@@H](CCC(N)=O)C(=O)N[C@@H](CCCCN)C(=O)N[C@@H](CCCCN)C(=O)N[C@@H](CCC(N)=O)C(=O)N[C@@H](CCCNC(=N)N)C(=O)N[C@@H](CCC(=O)O)C(=O)N[C@@H](CCC(N)=O)C(=O)N[C@@H](C)C(=O)N[C@@H](CCC(=O)O)C(=O)N[C@H](C(=O)N[C@@H](CC(N)=O)C(=O)N[C@@H](CCCCN)C(=O)N[C@@H](CCC(N)=O)C(=O)N[C@H](C(=O)N[C@@H](CC(C)C)C(=O)N[C@@H](C)C(=O)N[C@@H](CCC(N)=O)C(=O)N[C@H](C(N)=O)C(C)C)[C@@H](C)CC)[C@@H](C)O)[C@@H](C)CC)C(C)C)C(C)C
Molecule B1 displayed an EC50 [nM], 0% HSA of 1.66 nM.

B2: SEQ ID NO: 96 (peptide)
peptide: IVLSLDVPIKLK([AEEA-AEEA-γGlu-C18 diacid])QILLKQERQKKEREQAETNKQILAQV-NH2
modifications: N-terminus assumed
SMILES: CC[C@H](C)[C@H](N)C(=O)N[C@H](C(=O)N[C@@H](CC(C)C)C(=O)N[C@@H](CO)C(=O)N[C@@H](CC(C)C)C(=O)N[C@@H](CC(=O)O)C(=O)N[C@H](C(=O)N1CCC[C@H]1C(=O)N[C@H](C(=O)N[C@@H](CCCCN)C(=O)N[C@@H](CC(C)C)C(=O)N[C@@H](CCCCNC(=O)COCCOCCNC(=O)COCCOCCNC(=O)CC[C@H](NC(=O)CCCCCCCCCCCCCCCCC(=O)O)C(=O)O)C(=O)N[C@@H](CCC(N)=O)C(=O)N[C@H](C(=O)N[C@@H](CC(C)C)C(=O)N[C@@H](CC(C)C)C(=O)N[C@@H](CCCCN)C(=O)N[C@@H](CCC(N)=O)C(=O)N[C@@H](CCC(=O)O)C(=O)N[C@@H](CCCNC(=N)N)C(=O)N[C@@H](CCC(N)=O)C(=O)N[C@@H](CCCCN)C(=O)N[C@@H](CCCCN)C(=O)N[C@@H](CCC(=O)O)C(=O)N[C@@H](CCCNC(=N)N)C(=O)N[C@@H](CCC(=O)O)C(=O)N[C@@H](CCC(N)=O)C(=O)N[C@@H](C)C(=O)N[C@@H](CCC(=O)O)C(=O)N[C@H](C(=O)N[C@@H](CC(N)=O)C(=O)N[C@@H](CCCCN)C(=O)N[C@@H](CCC(N)=O)C(=O)N[C@H](C(=O)N[C@@H](CC(C)C)C(=O)N[C@@H](C)C(=O)N[C@@H](CCC(N)=O)C(=O)N[C@H](C(N)=O)C(C)C)[C@@H](C)CC)[C@@H](C)O)[C@@H](C)CC)[C@@H](C)CC)C(C)C)C(C)C
B2 returned an EC50 [nM], 0% HSA of 0.38 nM.

B3: SEQ ID NO: 99 (peptide)
peptide: IVLSLDVPIKLK([AEEA-AEEA-γGlu-C18 diacid])KILLKQERQKK[Aib]REQAEKNKQILAQV-NH2
modifications: N-terminus assumed
SMILES: CC[C@H](C)[C@H](N)C(=O)N[C@H](C(=O)N[C@@H](CC(C)C)C(=O)N[C@@H](CO)C(=O)N[C@@H](CC(C)C)C(=O)N[C@@H](CC(=O)O)C(=O)N[C@H](C(=O)N1CCC[C@H]1C(=O)N[C@H](C(=O)N[C@@H](CCCCN)C(=O)N[C@@H](CC(C)C)C(=O)N[C@@H](CCCCNC(=O)COCCOCCNC(=O)COCCOCCNC(=O)CC[C@H](NC(=O)CCCCCCCCCCCCCCCCC(=O)O)C(=O)O)C(=O)N[C@@H](CCCCN)C(=O)N[C@H](C(=O)N[C@@H](CC(C)C)C(=O)N[C@@H](CC(C)C)C(=O)N[C@@H](CCCCN)C(=O)N[C@@H](CCC(N)=O)C(=O)N[C@@H](CCC(=O)O)C(=O)N[C@@H](CCCNC(=N)N)C(=O)N[C@@H](CCC(N)=O)C(=O)N[C@@H](CCCCN)C(=O)N[C@@H](CCCCN)C(=O)NC(C)(C)C(=O)N[C@@H](CCCNC(=N)N)C(=O)N[C@@H](CCC(=O)O)C(=O)N[C@@H](CCC(N)=O)C(=O)N[C@@H](C)C(=O)N[C@@H](CCC(=O)O)C(=O)N[C@@H](CCCCN)C(=O)N[C@@H](CC(N)=O)C(=O)N[C@@H](CCCCN)C(=O)N[C@@H](CCC(N)=O)C(=O)N[C@H](C(=O)N[C@@H](CC(C)C)C(=O)N[C@@H](C)C(=O)N[C@@H](CCC(N)=O)C(=O)N[C@H](C(N)=O)C(C)C)[C@@H](C)CC)[C@@H](C)CC)[C@@H](C)CC)C(C)C)C(C)C
Take B3: the EC50 [nM], 0% HSA amounted to 0.06 nM and the EC50 [nM], 0.1% HSA was found to be 1.6 nM.

B4: SEQ ID NO: 98 (peptide)
peptide: IVLSLDVPIKLK([AEEA-AEEA-γGlu-C18 diacid])QKLLKQERQKK[Aib]REQAETNKQILAQV-NH2
modifications: N-terminus assumed
SMILES: CC[C@H](C)[C@H](N)C(=O)N[C@H](C(=O)N[C@@H](CC(C)C)C(=O)N[C@@H](CO)C(=O)N[C@@H](CC(C)C)C(=O)N[C@@H](CC(=O)O)C(=O)N[C@H](C(=O)N1CCC[C@H]1C(=O)N[C@H](C(=O)N[C@@H](CCCCN)C(=O)N[C@@H](CC(C)C)C(=O)N[C@@H](CCCCNC(=O)COCCOCCNC(=O)COCCOCCNC(=O)CC[C@H](NC(=O)CCCCCCCCCCCCCCCCC(=O)O)C(=O)O)C(=O)N[C@@H](CCC(N)=O)C(=O)N[C@@H](CCCCN)C(=O)N[C@@H](CC(C)C)C(=O)N[C@@H](CC(C)C)C(=O)N[C@@H](CCCCN)C(=O)N[C@@H](CCC(N)=O)C(=O)N[C@@H](CCC(=O)O)C(=O)N[C@@H](CCCNC(=N)N)C(=O)N[C@@H](CCC(N)=O)C(=O)N[C@@H](CCCCN)C(=O)N[C@@H](CCCCN)C(=O)NC(C)(C)C(=O)N[C@@H](CCCNC(=N)N)C(=O)N[C@@H](CCC(=O)O)C(=O)N[C@@H](CCC(N)=O)C(=O)N[C@@H](C)C(=O)N[C@@H](CCC(=O)O)C(=O)N[C@H](C(=O)N[C@@H](CC(N)=O)C(=O)N[C@@H](CCCCN)C(=O)N[C@@H](CCC(N)=O)C(=O)N[C@H](C(=O)N[C@@H](CC(C)C)C(=O)N[C@@H](C)C(=O)N[C@@H](CCC(N)=O)C(=O)N[C@H](C(N)=O)C(C)C)[C@@H](C)CC)[C@@H](C)O)[C@@H](C)CC)C(C)C)C(C)C
The molecule B4 showed an EC50 [nM], 0% HSA of 2.36 nM.

B5: SEQ ID NO: 7 (peptide)
peptide: IVLSLD[dV]PTKLK([γGlu-Palmitoyl])QKLLKQERQRKEREQAEKNARILARV-NH2
The molecule B5 registered an EC50 [nM], 0% HSA of 0.02 nM and an EC50 [nM], 0.1% HSA of 0.03 nM.

Source of the values: patent publication US12679878B2, “CRF2 receptor agonists and their use in therapy” (SANOFI, priority 2020, dated 2026).
